For assay [1], the target named is T1, His-AR1 (AnkG aa 2–236, His-tagged) (UniProt O70511 2-236).
T1 sequence (looked up): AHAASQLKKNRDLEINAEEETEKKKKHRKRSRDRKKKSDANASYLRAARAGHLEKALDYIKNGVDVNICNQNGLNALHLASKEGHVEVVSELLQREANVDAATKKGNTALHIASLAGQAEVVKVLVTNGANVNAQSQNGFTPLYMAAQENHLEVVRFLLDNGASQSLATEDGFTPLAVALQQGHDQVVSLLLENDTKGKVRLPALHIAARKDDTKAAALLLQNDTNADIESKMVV
The assay is described as follows: SPR. In general terms: SPR reads the build-up and loss of mass on a sensor chip optically.

The target of assay [2] is T2, His-MB (AnkG MB domain, aa 2–791, His-tagged) (UniProt O70511 2-791).
T2 sequence (looked up): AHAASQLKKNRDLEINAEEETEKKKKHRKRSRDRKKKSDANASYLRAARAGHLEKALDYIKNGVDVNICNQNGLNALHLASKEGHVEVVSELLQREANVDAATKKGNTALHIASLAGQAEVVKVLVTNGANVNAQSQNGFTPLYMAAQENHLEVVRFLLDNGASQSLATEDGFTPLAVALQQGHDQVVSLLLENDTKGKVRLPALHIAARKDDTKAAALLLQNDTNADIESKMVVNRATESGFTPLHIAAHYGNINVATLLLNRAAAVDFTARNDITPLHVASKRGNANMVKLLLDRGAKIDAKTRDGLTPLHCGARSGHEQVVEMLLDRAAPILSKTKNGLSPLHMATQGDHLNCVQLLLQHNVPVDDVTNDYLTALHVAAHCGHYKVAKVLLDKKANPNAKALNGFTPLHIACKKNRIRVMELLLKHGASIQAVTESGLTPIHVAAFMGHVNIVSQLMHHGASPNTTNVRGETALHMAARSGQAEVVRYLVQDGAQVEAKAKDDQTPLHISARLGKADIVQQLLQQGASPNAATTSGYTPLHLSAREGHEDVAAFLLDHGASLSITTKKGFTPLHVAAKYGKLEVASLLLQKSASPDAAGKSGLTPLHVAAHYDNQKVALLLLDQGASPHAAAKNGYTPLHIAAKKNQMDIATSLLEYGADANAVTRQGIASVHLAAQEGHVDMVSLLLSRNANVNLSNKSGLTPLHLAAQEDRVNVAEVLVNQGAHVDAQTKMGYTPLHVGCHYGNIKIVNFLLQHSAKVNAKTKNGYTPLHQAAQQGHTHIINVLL
The assay is described as follows: SPR.

B1: GST-Tail (GST-tagged KIF5B tail, aa 758–963) (domain or fragment)
chain: not shown
As for B1, in assay [1], the Kd (usually the concentration at which binding is half-saturated) is 48 nM; the koff (in general, a measure of how fast the partners let go of each other) was determined as 0.0014 s⁻¹; the kon – broadly, the second-order rate constant of association – was 32000 M⁻¹ s⁻¹. Besides, in assay [2], the Kd was 2.4 nM, the koff came out at 0.00059 s⁻¹ and the kon came out at 290000 M⁻¹ s⁻¹.

Values taken from article PMC3970081 (Developmental cell, 2014).
